Measurements published in patent publication US20240181006A1, “POLYPEPTIDES BINDING ADAMTS5, MMP13 AND AGGRECAN” (Merck Patent GmbH, priority 2017, published 2024).

Legend:
[1] = target: T1, human MMP1 (Homo sapiens, UniProt P03956); experiment: human MMP1 fluorogenic peptide assay (selectivity of 62C02); type: biochemical; conditions: data not shown
T1 sequence (P03956 100-469): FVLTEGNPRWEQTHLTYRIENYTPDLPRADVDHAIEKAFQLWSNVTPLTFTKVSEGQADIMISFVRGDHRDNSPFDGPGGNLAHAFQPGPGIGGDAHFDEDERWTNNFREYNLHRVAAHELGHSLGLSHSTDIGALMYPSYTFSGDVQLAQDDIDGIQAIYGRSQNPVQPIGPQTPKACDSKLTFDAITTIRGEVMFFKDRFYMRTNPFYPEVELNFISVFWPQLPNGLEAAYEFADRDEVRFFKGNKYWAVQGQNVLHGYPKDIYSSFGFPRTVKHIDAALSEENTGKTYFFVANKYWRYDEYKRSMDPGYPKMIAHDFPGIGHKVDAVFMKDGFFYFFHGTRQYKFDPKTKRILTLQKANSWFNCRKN
Experimental: (§1) In brief, the setup of human, cynomolgus, rat, dog and bovine MMP13 fluorogenic peptide assays, as well as human MMP1 and MMP14 fluorogenic peptide assays is as follows. Activated MMP was incubated with fluorogenic peptide substrate Mca-PLGL-Dpa-AR-NH2 (R&D Systems #ES001) and a ⅕ dilution of periplasmic extract or a dilution series of purified Nanobody/positive control (total volume=20 μl in assay buffer 50 mM Tris pH 7.5, 100 mM NaCl, 10 mM CaCl2), 0.01% Tween20), for 2 h at 37° C. The linear increase of fluorescence (v0-between 15 and 45 min incubation) was used as a measure for the enzymatic activity and % inhibition was calculated with the formula 100-100 (v0 in the presence of test Nanobody/v0 in the presence of negative control Nanobody (Cablys)).
(§2) In order to determine the selectivity of ISVD 62C02 for MMP13, fluorogenic peptide assays for MMP1 and MMPP14 were used. MMP1 and MMP14 are two closely related MMP family members. TIMP-2 was used as positive control in these assays. A similar set up as described in Example 1.1 was used.

[2] = target: T2, human MMP14 (Homo sapiens, UniProt P50281); experiment: human MMP14 fluorogenic peptide assay (selectivity of 62C02); type: biochemical; conditions: data not shown
Experimental: as §1, §2

[3] = target: T2, human MMP14; experiment: FRET-based human MMP14 assay (selectivity of 02F03); type: biochemical; conditions: data not shown
Experimental: (§3) To confirm the selectivity of ISVD 02F03 for ADAMTS5, inhibition of the enzymatic activity of MMP1, MMP14 and ADAMTS4 was evaluated via FRET-based assays and a human ADAMTS4 AlphaLISA, with the respective enzymes.
(§4) Activated human MMP1 or MMP14 was incubated for 30 minutes at room temperature with 10 μl of dilution series of ISVD 02F03. After incubation, 20 μl of respectively 5 μM or 2.5 μM fluorogenic peptide substrate (Mca-PLGL-Dpa-AR-NH2 Fluorogenic MMP Substrate (R&D Systems cat #ES001)) was added. The ability of ISVD 02F03 to prevent MMP1- and MMP14-mediated cleavage was monitored every minute for 2 hours at 37° C. on a Tecan Infinite M1000 plate reader.

[4] = target: T1, human MMP1; experiment: FRET-based human MMP1 assay (selectivity of 02F03); type: biochemical; conditions: data not shown
Experimental: as §3, §4

[5] = target: T3, Dog G1-IGD-G2 (Canis lupus familiaris, UniProt Q28343); experiment: periplasmic extract ELISA, dog Aggrecan G1-IGD-G2; type: binding
T3 construct: Dog G1-IGD-G2
Description: (§5) After the primary screening, initial assessment of binding via ELISA, determination of off-rate and species cross-reactivity, ISVD 114F08 was subjected to further characterization.

[6] = system: Rat G1-IGD-G2; experiment: periplasmic extract ELISA, rat Aggrecan G1-IGD-G2; type: binding
Description: as §5

[7] = system: Cy G1-IGD-G2; experiment: periplasmic extract ELISA, cynomolgus Aggrecan G1-IGD-G2; type: binding
Description: as §5

[8] = target: T4, Hu G1-IGD-G2 (Homo sapiens, UniProt P16112); experiment: periplasmic extract ELISA, human Aggrecan G1-IGD-G2; type: binding
T4 construct: Hu G1-IGD-G2
Description: as §5

[9] = target: T5, Bov G1-IGD-G2 (Bos taurus, UniProt P13608); experiment: periplasmic extract ELISA, bovine Aggrecan G1-IGD-G2; type: binding
T5 construct: the recombinant G1-IGD-G2 region from human, cynomolgus, rat, dog and bovine Aggrecan
Description: as §5

T3 sequence (Q28343 20-693): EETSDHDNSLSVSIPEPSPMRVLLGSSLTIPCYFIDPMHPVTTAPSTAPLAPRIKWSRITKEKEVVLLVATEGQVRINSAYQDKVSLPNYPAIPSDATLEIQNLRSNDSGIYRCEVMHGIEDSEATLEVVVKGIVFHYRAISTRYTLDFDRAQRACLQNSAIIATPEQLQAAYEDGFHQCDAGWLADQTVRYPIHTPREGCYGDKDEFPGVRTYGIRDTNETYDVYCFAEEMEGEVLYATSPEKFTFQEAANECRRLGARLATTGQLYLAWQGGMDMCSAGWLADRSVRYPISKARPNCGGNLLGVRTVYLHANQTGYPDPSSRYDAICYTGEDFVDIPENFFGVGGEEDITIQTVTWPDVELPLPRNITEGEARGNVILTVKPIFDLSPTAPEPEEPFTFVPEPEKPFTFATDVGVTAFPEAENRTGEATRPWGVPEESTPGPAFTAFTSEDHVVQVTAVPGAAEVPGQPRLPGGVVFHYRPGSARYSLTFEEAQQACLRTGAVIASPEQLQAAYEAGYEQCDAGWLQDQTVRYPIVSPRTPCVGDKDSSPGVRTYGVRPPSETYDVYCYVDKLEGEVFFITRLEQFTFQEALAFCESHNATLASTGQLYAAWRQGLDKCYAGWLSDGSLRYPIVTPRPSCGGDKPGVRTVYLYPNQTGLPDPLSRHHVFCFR
T5 sequence (P13608 20-685 limits assumed): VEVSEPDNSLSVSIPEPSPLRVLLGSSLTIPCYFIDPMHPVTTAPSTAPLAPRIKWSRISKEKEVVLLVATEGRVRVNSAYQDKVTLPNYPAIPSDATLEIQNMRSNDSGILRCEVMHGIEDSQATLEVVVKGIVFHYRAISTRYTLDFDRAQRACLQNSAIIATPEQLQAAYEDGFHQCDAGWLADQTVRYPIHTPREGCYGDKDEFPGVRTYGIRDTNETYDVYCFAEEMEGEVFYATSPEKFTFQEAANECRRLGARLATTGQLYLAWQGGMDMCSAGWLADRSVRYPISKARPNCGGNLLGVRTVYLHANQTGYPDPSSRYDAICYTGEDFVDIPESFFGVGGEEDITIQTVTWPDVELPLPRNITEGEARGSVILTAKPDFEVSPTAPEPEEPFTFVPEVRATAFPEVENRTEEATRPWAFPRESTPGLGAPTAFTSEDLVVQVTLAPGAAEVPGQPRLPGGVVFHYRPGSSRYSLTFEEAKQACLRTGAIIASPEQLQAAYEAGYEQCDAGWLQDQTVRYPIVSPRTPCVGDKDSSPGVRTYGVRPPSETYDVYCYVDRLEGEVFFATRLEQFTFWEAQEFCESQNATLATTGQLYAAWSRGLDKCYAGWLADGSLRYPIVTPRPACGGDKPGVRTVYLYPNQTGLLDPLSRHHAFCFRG
Chain of Rat G1-IGD-G2 (P07897 20-684 limits assumed): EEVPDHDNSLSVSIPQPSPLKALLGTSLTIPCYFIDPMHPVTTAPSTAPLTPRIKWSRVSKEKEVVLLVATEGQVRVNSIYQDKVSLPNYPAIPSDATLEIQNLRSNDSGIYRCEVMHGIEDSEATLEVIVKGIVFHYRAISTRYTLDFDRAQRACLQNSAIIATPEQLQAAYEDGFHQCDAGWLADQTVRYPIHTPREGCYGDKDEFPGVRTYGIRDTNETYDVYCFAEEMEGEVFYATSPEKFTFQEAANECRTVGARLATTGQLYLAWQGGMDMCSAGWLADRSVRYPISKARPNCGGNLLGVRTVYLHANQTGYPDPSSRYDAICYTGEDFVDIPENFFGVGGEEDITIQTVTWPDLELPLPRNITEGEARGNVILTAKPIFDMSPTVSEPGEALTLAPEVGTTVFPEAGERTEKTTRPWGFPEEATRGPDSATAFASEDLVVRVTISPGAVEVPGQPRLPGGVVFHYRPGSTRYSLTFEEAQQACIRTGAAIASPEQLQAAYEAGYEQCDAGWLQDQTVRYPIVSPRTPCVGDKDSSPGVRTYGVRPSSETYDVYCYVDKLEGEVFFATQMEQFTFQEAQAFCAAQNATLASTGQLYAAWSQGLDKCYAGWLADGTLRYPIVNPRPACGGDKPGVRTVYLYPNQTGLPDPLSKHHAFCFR
T4 sequence (P16112 20-676 limits assumed): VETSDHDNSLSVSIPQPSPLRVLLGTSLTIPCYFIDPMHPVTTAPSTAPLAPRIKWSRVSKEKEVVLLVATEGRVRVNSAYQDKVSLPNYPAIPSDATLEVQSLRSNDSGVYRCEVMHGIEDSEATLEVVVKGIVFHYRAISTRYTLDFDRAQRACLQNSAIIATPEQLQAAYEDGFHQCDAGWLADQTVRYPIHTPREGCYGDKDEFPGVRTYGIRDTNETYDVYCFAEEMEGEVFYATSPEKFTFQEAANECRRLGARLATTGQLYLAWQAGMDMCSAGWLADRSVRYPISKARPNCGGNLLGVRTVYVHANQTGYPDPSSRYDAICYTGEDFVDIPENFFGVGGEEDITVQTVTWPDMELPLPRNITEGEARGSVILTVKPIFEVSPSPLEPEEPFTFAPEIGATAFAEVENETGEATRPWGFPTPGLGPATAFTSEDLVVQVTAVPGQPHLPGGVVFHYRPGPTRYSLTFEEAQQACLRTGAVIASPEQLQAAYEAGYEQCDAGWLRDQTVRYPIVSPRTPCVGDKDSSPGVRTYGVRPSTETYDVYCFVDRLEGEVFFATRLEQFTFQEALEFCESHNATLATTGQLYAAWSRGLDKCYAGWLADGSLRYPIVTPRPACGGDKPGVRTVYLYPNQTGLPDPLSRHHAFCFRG

B1: ISVD 62C02: MMP13 specific immunoglobulin single variable domain (protein)
VHH: EVQLVESGGGVVQPGGSLRLSCAASGFAFSAAYMSWVRQAPGKGLEWVSSISDDGSKTYYADSVKGRFTISRDNSKNTVYLQMNSLRPEDTALYYCNTGYGATTTRPGRYWGQGTLVTVSS
modifications: Description of Artificial Sequence: Synthetic anti-MMP13 immunoglobulin single variable domain (ISVD)
MMP1 inhibition [1]: no MMP1 or MMP14 inhibition
MMP14 inhibition [2]: no MMP1 or MMP14 inhibition

B2: TIMP3: natural inhibitor of MMP1 and MMP14 (protein)
chain: CTCSPSHPQDAFCNSDIVIRAKVVGKKLVKEGPFGTLVYTIKQMKMYRGFTKMPHVQYIHTEASESLCGLKLEVNKYQYLLTGRVYDGKMYTGLCNFVERWDQLTLSQRKGLNYRYHLGCNCKIKSCYYLPCFVTSKNECLWTDMLSNFGYPGYQSKHYACIRQKGGYCSWYRGWAPPDKSIINATDP
inhibition of MMP14 activity [3]: inhibited
inhibition of MMP1 activity [4]: inhibited

B3: ISVD 114F08: Aggrecan-specific immunoglobulin single variable domain (CAP), binds G1 domain (protein)
VHH: EVQLVESGGGVVQPGGSLRLSCAASGSTFIINVVRWYRRAPGKQRELVATISSGGNANYVDSVRGRFTISRDNSKNTVYLQMNSLRPEDTALYYCNVPTTHYGGVYYGPYWGQGTLVTVSS
modifications: Description of Artificial Sequence: Synthetic anti-Aggrecan immunoglobulin single variable domain (ISVD)
Periplasmic extract ELISA OD 450 nm, Dog G1-IGD-G2 [5]: 1.90
Periplasmic extract ELISA OD 450 nm, Rat G1-IGD-G2 [6]: 2.05
Periplasmic extract ELISA OD 450 nm, Cy G1-IGD-G2 [7]: 2.32
Periplasmic extract ELISA OD 450 nm, Hu G1-IGD-G2 [8]: 2.38
Periplasmic extract ELISA OD 450 nm, Bov G1-IGD-G2 [9]: 1.18
